From the supplement of paper PMC7877785
± gives the uncertainty stated by the source.

Experiment: self-splicing fitness, log relative to wild type (ln ratio); higher = more splicing; Tetrahymena group I intron in knt gene, E. coli kanamycin selection, DiMSum; sequences stand for … in CUCUCU…GGAGGGAAAAGUUAUCAGGCAUGCACCUGGUAGCUAGUCUUUAAACCAAUAGAUUGCAUCGGUUUAAAAGGCAAGACCGUCAAAUUGCGGGAAAGGGGUCAACAGCCGUUCAGUACCAAGUCUCAGGGGAAACUUUGAGAUGGCCUUGCAAAGGGUAUGGUAAUAAGCUGACGGACAUGGUCCUAACCACGCAGCCAAGUCCUAAGUCAACAGAUCUUCUGUUGAUAUGGAUGCAGUUCACAGACUAAAUGUCGGUCGGGGAAGAUGUAUUCUUCUCAUAAGAUAUAGUCGGACCUCUCCUUAAUGGGAGCUAGCGGAUGAAGUGAUGCAACACUGGAGCCGCUGGGAACUAAUUUGUAUGCGAAAGUAUAUUGAUUAGUUUUGGAGUACUCGUGGUCG
Summary of the method: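 Library with all eight P1ex-region intron nucleotides randomised, intron inside the knt kanamycin-resistance gene on pET-22b(+), in E. coli BL21(DE3). Cells grew overnight at 37°C or 30°C on LB agar with or without 25 μg/mL kanamycin (plus 100 μg/mL carbenicillin, 50 μM IPTG, 0.2% rhamnose), in six replicate transformations. Pooled colonies were amplicon-sequenced on Illumina HiSeq 2500. DiMSum fitness is the error-weighted combination of wild-type-normalised replicate fold changes, kanamycin versus none.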

Sequence	self-splicing fitness (ln) (30 °C)	self-splicing fitness (ln) (37 °C)
UUCGAGCAAUAUUACGUUGU	-2.49 ± 0.18	-2.75 ± 0.24
UUCUAGCAAUAUUACGAAAG		-2.87 ± 0.32
UUCUAGCAAUAUUACGAGUU	-2.55 ± 0.15	-1.92 ± 0.13
UUCUAGCAAUAUUACGAUAA	-1.46 ± 0.16	-0.147 ± 0.19
UUCUAGCAAUAUUACGAUAC	-2.08 ± 0.38	-2.64 ± 0.41
UUCUAGCAAUAUUACGCCGG		-2.05 ± 0.37
UUCUAGCAAUAUUACGCGAU	-1.99 ± 0.22	
UUCUAGCAAUAUUACGCUCG	-2.13 ± 0.26	-2.09 ± 0.49
UUCUAGCAAUAUUACGGAAU	-4.1 ± 0.39	-1.91 ± 0.33
UUCUAGCAAUAUUACGGCAA	0.293 ± 0.1	0.334 ± 0.11
UUCUAGCAAUAUUACGGCAC		-0.626 ± 0.23
UUCUAGCAAUAUUACGGCCC	-1.62 ± 0.41	
UUCUAGCAAUAUUACGGCGC	-2.84 ± 0.25	-2.7 ± 0.24
UUCUAGCAAUAUUACGGCUC	-1.38 ± 0.14	-0.913 ± 0.2
UUCUAGCAAUAUUACGGGAG	-2.34 ± 0.19	-1.47 ± 0.19
UUCUAGCAAUAUUACGGUUC	-2.74 ± 0.26	-2.44 ± 0.27
UUCUAGCAAUAUUACGUAGA	-3.73 ± 0.29	-2.19 ± 0.25
UUCUAGCAAUAUUACGUGAU	-1.89 ± 0.18	-1.34 ± 0.21
UUGAAGCAAUAUUACGAAGA	-0.989 ± 0.11	-0.181 ± 0.17
UUGAAGCAAUAUUACGAAUU	-2.73 ± 0.33	-1.3 ± 0.31
UUGAAGCAAUAUUACGAGCU	-1.76 ± 0.16	-1.02 ± 0.19
UUGAAGCAAUAUUACGAGGC	-3.28 ± 0.39	-1.84 ± 0.47
UUGAAGCAAUAUUACGAUGA	0.15 ± 0.075	0.161 ± 0.099

Sequence	self-splicing fitness (ln) (30 °C)	self-splicing fitness (ln) (37 °C)
UUGAAGCAAUAUUACGAUUA	0.283 ± 0.096	-0.455 ± 0.096
UUGAAGCAAUAUUACGCAGC	-3.74 ± 0.3	-1.05 ± 0.34
UUGAAGCAAUAUUACGGAUG	0.196 ± 0.1	0.219 ± 0.12
UUGAAGCAAUAUUACGGCAA	0.615 ± 0.092	0.402 ± 0.12
UUGAAGCAAUAUUACGGCAU	-0.14 ± 0.06	1.08 ± 0.08
UUGAAGCAAUAUUACGGCCA	0.0822 ± 0.12	-0.046 ± 0.13
UUGAAGCAAUAUUACGGCGA	0.203 ± 0.088	0.256 ± 0.12
UUGAAGCAAUAUUACGGCUG	0.342 ± 0.12	0.572 ± 0.12
UUGAAGCAAUAUUACGGGAU	-2.63 ± 0.14	-1 ± 0.14
UUGAAGCAAUAUUACGGGCA	0.114 ± 0.11	0.502 ± 0.13
UUGAAGCAAUAUUACGGGCU	-3.02 ± 0.14	-1.16 ± 0.1
UUGAAGCAAUAUUACGGGUG	-0.54 ± 0.048	-0.446 ± 0.066
UUGAAGCAAUAUUACGUCCG	0.0359 ± 0.093	0.4 ± 0.12
UUGAAGCAAUAUUACGUCUG	0.509 ± 0.059	0.84 ± 0.081
UUGAAGCAAUAUUACGUGCA	-0.222 ± 0.068	0.447 ± 0.1
UUGAAGCAAUAUUACGUUCC		-2.79 ± 0.35
UUGCAGCAAUAUUACGAGUA	-1.92 ± 0.16	-1.42 ± 0.15
UUGCAGCAAUAUUACGAUAC		-1.74 ± 0.47
UUGCAGCAAUAUUACGCACC	-0.223 ± 0.47	
UUGCAGCAAUAUUACGCGCU	-1.88 ± 0.18	-0.656 ± 0.19
UUGCAGCAAUAUUACGCUUG	-3.08 ± 0.27	-1.97 ± 0.29
UUGCAGCAAUAUUACGGCAC	-0.586 ± 0.17	-0.741 ± 0.19
